Molecular target: EGFP-Vinexin β (mouse)
Assay: FRET or BRET; acceptor photobleaching FRET in stress granules of live COS-7 cells; EGFP donor, mCherry RFP acceptor

FRET efficiency: 14.5%
Substance: RFP-CPEB4 (natural protein)

— article PMC4169592
